First the molecules themselves.
B1: Hammerhead Ribozyme (parent)
chain: ACCGGAUGUGCUUUCCGGUCUGAUGAGUCCGUGAGGACGAAACAG

The variants in the data set derive from B1. The experiment in a line: self-cleavage, relative activity (ratio to wild type); higher = more cleavage; co-transcriptional.
With A1U C15G, the self-cleavage was 0.355.
To A1U C15U belongs 0.55; to A1U C15A, 0.373; to A1G G5C, 0.628.
Regarding A1G G5U, the self-cleavage turned out to be 0.805.
To A1G G5A belongs 1.04.
On to C2A A44C, for which the self-cleavage was 0.425.
The figure for C2A A44U is 0.375; for C2A A44G it is 0.989; for C2A it is 0.866.
The figure for A1U G39C is 0.356; for A1U G39U it is 0.347.
The figure for A1U G39A is 0.349.
As for A1U U32G, the self-cleavage amounted to 0.465.
The figure for A1U U32A is 0.692; for A1U U32C it is 0.436.
A1U U14C: the self-cleavage came out at 0.531.
To A1U U14G belongs 0.692; to A1U U14A, 0.353.
To A1U C38G belongs 0.33; to A1U C38A, 0.528; to A1U C38U, 0.583.
As for A1U G35C, the self-cleavage is 0.47.
Take A1U G35U: the self-cleavage is 0.451.
To A1U G35A belongs 0.635; to C2A G25U, 0.323.
In the case of C2A G25C, the self-cleavage came to 0.359.
To C2A G25A belongs 0.31; to A1U U12A, 0.66; to A1U U12G, 0.753.
On to A1U U12C, for which the self-cleavage was 0.546.
Consider C2A G22A, for which the self-cleavage is 0.364.
As to C2A G22C, the self-cleavage came out at 0.353.
To C2A G22U belongs 0.34.
The figure for C2A C30U is 0.847; for C2A C30A it is 0.473.
The figure for C2A C30G is 0.333; for A1U A26G it is 0.34.
As for A1U A26C, the self-cleavage was 0.402.
In the case of A1U A26U, the self-cleavage came to 0.383.
Turning to A1G U21A, the self-cleavage is 0.968.
The figure for A1G U21C is 0.949.
The figure for A1G U21G is 0.812; for A1U C30A it is 0.487.
To A1U C30G belongs 0.414; to A1U C30U, 0.897; to A1U G22A, 0.372.
On to A1U G22C, for which the self-cleavage was determined as 0.22.
The figure for A1U G22U is 0.33; for A1G C29A it is 0.835.
To A1G C29U belongs 1.52.
To A1G C29G belongs 1.02.
C2A G36A: the self-cleavage was 0.353.
The figure for C2A G36U is 0.341; for C2A G36C it is 0.307; for A1G U7G it is 1.4.
The figure for A1G U7A is 1.31; for A1G U7C it is 1.39.
The figure for A1U G45U is 0.585; for A1U G45A it is 0.409; for A1U G45C it is 0.493.
For the variant C2A G31A, the self-cleavage came out at 0.969.
As to C2A G31U, the self-cleavage is 0.828.
To C2A G31C belongs 0.66.
To A1U G31U belongs 0.748.
For the variant A1U G31A, the self-cleavage was 1.03.
As to A1U G31C, the self-cleavage stood at 0.621.
To C2A U7G belongs 0.518; to C2A U7C, 0.382.
In the case of C2A U7A, the self-cleavage was found to be 0.457.
To A1U G8A belongs 0.687.
The figure for A1U G8U is 0.728; for A1U G8C it is 0.599.
To A1G G17U belongs 1.02; to A1G G17C, 0.585.
As for A1G G17A, the self-cleavage stood at 0.896.
The figure for C2A C3G is 0.277; for C2A C3U it is 0.312; for C2A C3A it is 0.476.
The figure for A1U A44U is 0.425.
The figure for A1U A44C is 0.574.
As to A1U A44G, the self-cleavage is 0.971.
The figure for A1U U13G is 0.812; for A1U U13C it is 0.94; for A1U U13A it is 1.02.
Regarding A1U C16A, the self-cleavage amounted to 0.419.
A1U C16G: the self-cleavage was found to be 0.459.
To A1U C16U belongs 0.431; to A1U A42G, 0.351; to A1U A42U, 0.279.
To A1U A42C belongs 0.395; to A1U A23U, 0.306; to A1U A23C, 0.385.
The figure for A1U A23G is 0.383; for A1U U9C it is 0.656.
As to A1U U9G, the self-cleavage came out at 0.348.
Regarding A1U U9A, the self-cleavage worked out at 0.565.
For A1G G27C, the self-cleavage was found to be 0.879.
On to A1G G27U, for which the self-cleavage came out at 0.585.
As for A1G G27A, the self-cleavage came out at 1.07.
To A1G U32C belongs 1.48; to A1G U32A, 1.68.
Take A1G U32G: the self-cleavage is 1.45.
Consider A1U U19A, for which the self-cleavage amounted to 1.1.
To A1U U19C belongs 0.617; to A1U U19G, 1.28.
The figure for C2A G27U is 0.32; for C2A G27C it is 0.339; for C2A G27A it is 0.438.
To C2A G10C belongs 0.662.
As for C2A G10A, the self-cleavage stood at 0.934.
To C2A G10U belongs 0.88; to C2A G5C, 0.288.
To C2A G5U belongs 0.319; to C2A G5A, 0.37; to C2A A23U, 0.33.
As to C2A A23G, the self-cleavage came to 0.334.
The figure for C2A A23C is 0.297; for C2A C16A it is 0.365; for C2A C16G it is 0.363.
The figure for C2A C16U is 0.554.
To A1G C43G belongs 0.395.
A1G C43A: the self-cleavage turned out to be 0.444.
Regarding A1G C43U, the self-cleavage was 0.597.
To C2A G17U belongs 0.365; to C2A G17C, 0.359; to C2A G17A, 0.364.
To C2A U9A belongs 0.563; to C2A G39A, 0.319; to C2A G39U, 0.327.
For the variant C2A G39C, the self-cleavage stood at 0.305.
As for A1G C20U, the self-cleavage was 0.971.
To A1G C20A belongs 0.54.
A1G C20G: the self-cleavage came out at 0.358.
To A1G G18U belongs 0.894; to A1G G18A, 0.906.
Take A1G G18C: the self-cleavage was 0.58.
To C2A G8U belongs 0.794; to C2A G8C, 0.559; to C2A G8A, 0.587.
The figure for C2A C11U is 0.431; for C2A C11G it is 0.828.
To C2A C11A belongs 0.958; to A1G U28A, 1.26; to A1G U28G, 1.33.
As to A1G U28C, the self-cleavage came out at 1.79.
The figure for C2A C29U is 0.584; for C2A C29A it is 0.376.
Turning to C2A C29G, the self-cleavage is 0.378.
To A1U A40U belongs 0.349.
The figure for A1U A40G is 0.383.
The figure for A1U A40C is 0.387; for A1U G18C it is 0.39; for A1U G18A it is 0.477.
For the variant A1U G18U, the self-cleavage came out at 0.475.
To A1U G4A belongs 0.342; to A1U G4U, 0.309.
To A1U G4C belongs 0.353.
On to A1U G5A, for which the self-cleavage stood at 0.491.
Take A1U G5U: the self-cleavage is 0.354.
The figure for A1U G5C is 0.287; for C2A A42U it is 0.332; for C2A A42G it is 0.344.
To C2A A42C belongs 0.355.
Turning to A1G G39C, the self-cleavage was determined as 0.394.
To A1G G39U belongs 0.428; to A1G G39A, 0.384.

These data come from the RNAGym collection of RNA variant scans (doi:10.7554/elife.80360).
